B1: domain-exchanged heterodimeric bispecific antibody 1, BsAb1 (anti-CD3× anti-EGFR CH3-KiH) (bispecific antibody, human IgG1, kappa)
heavy 1: QVQLVQSGAEVKKPGASVKVSCKASGYTFTSHWMHWVRQAPGQGLEWIGEFNPSNGRTNYNEKFKSKATMTVDTSTNTAYMELSSLRSEDTAVYYCASRDYDYDGRYFDYWGQGTLVTVSSASTKGEPQVYTLPPSRDELTKNQVSLYCLVKGFYPSDIAVEWESNGQPENNYKTTPPVLDSDGSFFLYSKLTVDKSRWQQGNVFSCSVMHEALHNHYTQKSLSLSKSCDKTHTCPPCPAPELLGGPSVFLFPPKPKDTLMISRTPEVTCVVVDVSHEDPEVKFNWYVDGVEVHNAKTKPREEQYNSTYRVVSVLTVLHQDWLNGKEYKCKVSNKALPAPIEKTISKAKGQPFRPEVHLLPPSREEMTKNQVSLTCLARGFYPKDIAVEWESNGQPENNYKTTPSRQEPSQGTTTFAVTSKLTVDKSRWQQGNVFSCSVMHEALHNHYTQKTISLSPGK
heavy 2: QVQLVQSGGGVVQPGRSLRLSCKASGYTFTRYTMHWVRQAPGKGLEWIGYINPSRGYTNYNQKVKDRFTISRDNSKNTAFLQMDSLRPEDTGVYFCARYYDDHYCLDYWGQGTPVTVSSASTKGPSVFPLAPSSKSTSGGTAALGCLVKDYFPEPVTVSWNSGALTSGVHTFPAVLQSSGLYSLSSVVTVPSSSLGTQTYICNVNHKPSNTKVDKKVEPKSCDKTHTCPPCPAPELLGGPSVFLFPPKPKDTLMISRTPEVTCVVVDVSHEDPEVKFNWYVDGVEVHNAKTKPREEQYNSTYRVVSVLTVLHQDWLNGKEYKCKVSNKALPAPIEKTISKAKGQPREPQVYTLPPPSEELALNELVTLTCLVKGFYPSDIAVEWLQGSQELPREKYLTWAPVLDSDGSFFLYSILRVAAEDWKKGDTFSCSVMHEALHNHYTQKSLDRSPGK
light 1: DIQMTQSPSSLSASVGDRVTITCSASSSVTYMYWYQQKPGKAPKLLIYDTSNLASGVPSRFSGSGSGTDYTFTISSLQPEDIATYYCQQWSSHIFTFGQGTKVEIKRTVAEPQVYTLPPSRDELTKNQVSLTCLVKGFYPSDIAVEWESNGQPENNYKTTPPVLDSDGSFFLTSKLTVDKSRWQQGNVFSCSVMHEALHNHYTQKSLSLSGEC
light 2: DIQMTQSPSSLSASVGDRVTITCSASSSVSYMNWYQQTPGKAPKRWIYDTSKLASGVPSRFSGSGSGTDYTFTISSLQPEDIATYYCQQWSSNPFTFGQGTKLQITRTVAAPSVFIFPPSDEQLKSGTASVVCLLNNFYPREAKVQWKVDNALQSGNSQESVTEQDSKDSTYSLSSTLTLSKADYEKHKVYACEVTHQGLSSPVTKSFNRGEC
notes: hu425 (Matuzumab) Fv in the CH3 domain-exchanged Fab arm, OKT3 Fv in the native Fab arm; SEED AG/GA Fc; also called domain-exchanged heterodimeric antibody 1; domain-exchanged bispecific antibody 1
B2: Effector Negative (EN) isotype domain-exchanged bispecific antibody BsAb2 (anti-CD16× anti-EGFR CH3-KiH), BsAb2 EN (bispecific antibody, human IgG1, kappa)
heavy 1: QVQLVQSGAEVKKPGASVKVSCKASGYTFTSHWMHWVRQAPGQGLEWIGEFNPSNGRTNYNEKFKSKATMTVDTSTNTAYMELSSLRSEDTAVYYCASRDYDYDGRYFDYWGQGTLVTVSSASTKGEPQVYTLPPSRDELTKNQVSLYCLVKGFYPSDIAVEWESNGQPENNYKTTPPVLDSDGSFFLYSKLTVDKSRWQQGNVFSCSVMHEALHNHYTQKSLSLSKSCDKTHTCPPCPAPPVAGPSVFLFPPKPKDTLMISRTPEVTCVVVDVSHEDPEVQFNWYVDGVEVHNAKTKPREEQAQSTFRVVSVLTVVHQDWLNGKEYKCKVSNKGLPAPIEKTISKTKGQPFRPEVHLLPPSREEMTKNQVSLTCLARGFYPKDIAVEWESNGQPENNYKTTPSRQEPSQGTTTFAVTSKLTVDKSRWQQGNVFSCSVMHEALHNHYTQKTISLSPGK
heavy 2: not shown
light 1: B1 light 1
light 2: not shown
notes: also called EN BsAb2; effector negative IgG2 variant of BsAb2
B3: domain-exchanged bispecific antibody 2, BsAb2 (anti-CD16× anti-EGFR CH3-KiH) (bispecific antibody, human IgG1, kappa)
heavy 1: B1 heavy 1
heavy 2: not shown
light 1: B1 light 1
light 2: not shown
notes: hu425 Fv in the domain-exchanged Fab arm, murine 3G8 (anti-CD16) Fv in the native Fab arm; also called effector positive BsAb2 variant

What was measured:
[1] = target: T1, EGFR (on EGFR-expressing A431 cells) (UniProt P00533 25-1210, limits assumed); assay: flow cytometry on A431 cells
T1 construct: whole, on cells; A431 is a human cell line; also called EGFR-positive cells; EGFR-overexpressing A431 cells

[2] = target: CD3 (on activated primary T cells) (UniProt P07766 23-207); assay: cell-based or functional assay
[3] = target: T1, EGFR (on EGFR-expressing A431 cells); assay: cell-based or functional assay
CD16a receptor (FcγIIIa) [4] = target: T2, CD16a receptor (FcγIIIa) (UniProt P08637 17-254, limits assumed); assay: CD16a HTRF cellular binding assay, competition with labeled human IgG
T2 construct: whole, on cells
T2 sequence (P08637 17-254 limits assumed): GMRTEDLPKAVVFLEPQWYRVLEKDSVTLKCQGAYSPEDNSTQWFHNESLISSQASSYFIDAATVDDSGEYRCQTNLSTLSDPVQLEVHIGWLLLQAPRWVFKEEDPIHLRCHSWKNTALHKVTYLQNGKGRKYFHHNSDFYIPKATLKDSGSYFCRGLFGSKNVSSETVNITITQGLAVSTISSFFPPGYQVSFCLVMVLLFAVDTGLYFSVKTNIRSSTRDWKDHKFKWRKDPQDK
Protocol: FIG. 14: Binding of antibodies to CD16a receptor. Binding was measured using CD16a HTRF cellular binding assay (CisBio). Measurement was performed in duplicates.

CD16a receptor (FcγIIIa) [5] = target: T2, CD16a receptor (FcγIIIa); assay: cell-based or functional assay

Binder	EC50 [1] [nM]	EC50 of redirected lysis of A431 cells by activated T cells (LDH release) [2] [nM]	EC50 of redirected lysis of A431 cells by activated T cells (LDH release) [3] [nM]	IC50 (CD16a receptor (FcγIIIa) [4]) [nM]	EC50 of lysis of A431 cells by redirected NK cells (LDH release) (CD16a receptor (FcγIIIa) [5]) [nM]	lysis of A431 cells by redirected NK cells (LDH release) (CD16a receptor (FcγIIIa) [5]) [%]	EC50 of lysis of A431 cells by redirected NK cells (LDH release) [3] [nM]	lysis of A431 cells by redirected NK cells (LDH release) [3] [%]
B1	~7	0.1 to 0.3	0.1 to 0.3					
B2				~3.6	0.037	≤ 50	0.037	≤ 50
B3				~0.3	0.01	≤ 50	0.01	≤ 50

Reference: patent US20180016354A1 (Merck KGaA, published 2018)
